Source: US20050271638A1 (published 2005)

Molecular target: T1, β-catenin (mouse, UniProt Q02248 2-781)
T1 construct: whole, on cells; Detected by immunostaining; also called B-catenin
T1 sequence (looked up): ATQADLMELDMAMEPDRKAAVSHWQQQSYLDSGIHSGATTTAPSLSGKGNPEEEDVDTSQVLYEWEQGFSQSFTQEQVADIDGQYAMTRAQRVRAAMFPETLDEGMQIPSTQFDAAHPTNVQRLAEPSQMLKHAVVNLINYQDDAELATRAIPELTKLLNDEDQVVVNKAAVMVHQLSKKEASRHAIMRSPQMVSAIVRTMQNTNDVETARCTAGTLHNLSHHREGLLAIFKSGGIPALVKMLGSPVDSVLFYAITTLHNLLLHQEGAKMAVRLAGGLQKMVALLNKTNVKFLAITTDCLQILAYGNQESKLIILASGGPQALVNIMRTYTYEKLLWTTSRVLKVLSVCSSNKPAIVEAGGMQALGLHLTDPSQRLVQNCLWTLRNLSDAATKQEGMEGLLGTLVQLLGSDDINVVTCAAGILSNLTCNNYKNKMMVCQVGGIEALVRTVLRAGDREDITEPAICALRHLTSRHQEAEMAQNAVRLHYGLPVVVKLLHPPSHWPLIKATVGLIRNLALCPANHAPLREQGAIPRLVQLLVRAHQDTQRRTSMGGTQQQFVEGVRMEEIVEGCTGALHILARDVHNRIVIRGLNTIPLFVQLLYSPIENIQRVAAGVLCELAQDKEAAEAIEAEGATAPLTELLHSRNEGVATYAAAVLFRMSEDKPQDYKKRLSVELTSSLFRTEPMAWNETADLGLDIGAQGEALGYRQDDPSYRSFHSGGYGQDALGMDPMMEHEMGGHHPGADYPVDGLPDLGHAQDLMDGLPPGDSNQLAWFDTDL
Assay: co-immunostaining of wild-type mouse intestine sections (FIG. 7G)

binding result: binds
B1: N-cadherin (other, mouse, UniProt P15116 160-906, looked up)
chain: DWVIPPINLPENSRGPFPQELVRIRSDRDKNLSLRYSVTGPGADQPPTGIFIINPISGQLSVTKPLDRELIARFHLRAHAVDINGNQVENPIDIVINVIDMNDNRPEFLHQVWNGSVPEGSKPGTYVMTVTAIDADDPNALNGMLRYRILSQAPSTPSPNMFTINNETGDIITVAAGLDREKVQQYTLIIQATDMEGNPTYGLSNTATAVITVTDVNDNPPEFTAMTFYGEVPENRVDVIVANLTVTDKDQPHTPAWNAAYRISGGDPTGRFAILTDPNSNDGLVTVVKPIDFETNRMFVLTVAAENQVPLAKGIQHPPQSTATVSVTVIDVNENPYFAPNPKIIRQEEGLHAGTMLTTLTAQDPDRYMQQNIRYTKLSDPANWLKIDPVNGQITTIAVLDRESPNVKNNIYNATFLASDNGIPPMSGTGTLQIYLLDINDNAPQVLPQEAETCETPEPNSINITALDYDIDPNAGPFAFDLPLSPVTIKRNWTINRLNGDFAQLNLKIKFLEAGIYEVPIIITDSGNPPKSNISILRVKVCQCDSNGDCTDVDRIVGAGLGTGAIIAILLCIIILLILVLMFVVWMKRRDKERQAKQLLIDPEDDVRDNILKYDEEGGGEEDQDYDLSQLQQPDTVEPDAIKPVGIRRLDERPIHAEPQYPVRSAAPHPGDIGDFINEGLKAADNDPTAPPYDSLLVFDYEGSGSTAGSLSSLNSSSSGGDQDYDYLNDWGPRFKKLADMYGGGDD
notes: whole, on cells; Detected by immunostaining
